The source of these data is the nanobody polyreactivity screen of Harvey et al. (2022).

The data set in a line: yeast display, Sf9 membrane polyspecificity reagent, FACS + sequencing; frameworks hold sequencing errors. Put shortly:
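Galactose induction of a Saccharomyces cerevisiae BJ5465 synthetic nanobody display library ran 36–48 hours. The cells were then stained for 1 hour at 4 °C with 10% biotinylated, detergent-solubilized Sf9 membrane reagent, pulled down on streptavidin microbeads and FACS-sorted into low and high (top ~1%) gates on expression and reagent-binding fluorescence. Labels for polyreactivity follow the gate of origin.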
With “QVQLVESGGGLVQAGGRLRLSCAASGRTFKLYAMGWYRQAPRKERELVAAITESGGSTYYADTVKGRFTISRDNAKNTVYLQMNILKPEDTAVDYCARVLQYQKRNDYEYWGQGTQVTVSS”, the “polyreactivity (PSR sort gate)” value is “low polyreactivity”.

On to “QVQLVESGGGLVQAGGRLRLSCAASGRTFLRYAMGWYRQAPGKERELVAAISVSGGNTYYADSVKGRFTISRDNAKNTVYLQMNSLKPEDTAVYYCNKARLAAVFSYPYGYWGQGTQVTVSS”, for which the “polyreactivity (PSR sort gate)” value is recorded as “low polyreactivity”.

For the sequence “QVQLVESGGGLVQAGGRLRLSCAASGRTFNVNVMGWYRQAPGKERELVAAIRYTGGSTYADSVKGRFTISRDNAKNTVYLQMNSLKPEDTALYYCNADTFFPFDHGMDYWGQGTQVTVSS”, the “polyreactivity (PSR sort gate)” value is “low polyreactivity”.

In the case of “QVQLVESGGGLVQAGGRLRLSCAASGRTFPIYAMGWYRQAPGKERELVAAITRGGRTNYADSVKGRFTISRDNAKNTVYLQMNSLKPEDTAVYYCAARTYGTYLYAEYDYWGQGTQVTVSS”, the “polyreactivity (PSR sort gate)” value is “high polyreactivity”.

Regarding “QVQLVESGGGLVQAGGRLRLSCAASGRTFRPYALGWYRQPPVKERELVAAIDSSGTSTYYADSVKGRFTISRDNAKNTVYLQMNSLKPEDTAVYDCAQASPDHWYSRYDYWGQGTQVTVSS”, the “polyreactivity (PSR sort gate)” value is “low polyreactivity”.

Regarding “QVQLVESGGGLVQAGGRLRLSCAASGRTFRRYAMGWYRPAPGTERELVAAISWSGGSTYYADSVKGRFTISRDNAKNSVYLQMNSLKPEDTAVYYCGAETRYGYGYWGQGTQVTVSS”, the “polyreactivity (PSR sort gate)” value was “high polyreactivity”.

Consider “QVQLVESGGGLVQAGGRLRLSCAASGSIFASYAMGWYRQAPGKERELVAAITSDGNTYYADSVKGRFTISRDNAKNTVYLPMNSLIPEDTAVYYCAADRYSTYPYAKGTEFYYWGQGTQVTVSS”, for which the “polyreactivity (PSR sort gate)” value is recorded as “low polyreactivity”.

Regarding “QVQLVESGGGLVQAGGRLRLSCAASGSIFDLNAMGWYRQAPGKERELVAAISSGGGTYYADSVKGRFTISRDNAKNTVYLQMNSLKPEDTAVYYCNRVTRWTYNYWGQGTQVTVSS”, the “polyreactivity (PSR sort gate)” value was “high polyreactivity”.

For the sequence “QVQLVESGGGLVQAGGRLRLSCAASGSIFRYYAMGWYRQATGKERELVAAITRGDSTNYADSVKGRFTISRDNAKNTVYLQMNSLKPEDTAVYYCAASRYHGWYVKMGYWGQGTQVTVSS”, the “polyreactivity (PSR sort gate)” value is given as “high polyreactivity”.

“QVQLVESGGGLVQAGGRLRLSCAASGSIFTPNAMGWYRQAPGKEMELVAAISSSSDRTYYADSVKGRFTISRDNAMITVYLQMNSLNPEDTAVYYCAAETNTWYLFDFWGQGTQVTVSS”: the “polyreactivity (PSR sort gate)” value is reported as “high polyreactivity”.

Turning to “QVQLVESGGGLVQAGGRLRLSCAASGSIFVGYAMGWYRQAPGKERELVAAISTRGGSTYYAHSVKGRFTISRDNAKNTVYLQMNSLKPEDTAVYYSAADYLDSTYGYVYGWDDYWGQGTQVTVST”, the “polyreactivity (PSR sort gate)” value is “low polyreactivity”.

As for “QVQLVESGGGLVQAGGRLRLSCAASGSIFYGYDMGWYRQAPGKERELVAAITIGGGTTYYADSVKGRFTISRDNAKNTVYLQMNSLKPEDTAVYYCAKTYARPTRVQKYSGEGGYWGQGTQVTVSS”, the “polyreactivity (PSR sort gate)” value is given as “high polyreactivity”.

In the case of “QVQLVESGGGLVQAGGRLRLSCAASGSISGYYAMGWYRQAPGKERELVASIRYTGARTYYADSVKGRFTISRDNAKNNVYLQMNSLKPEDTAVYYCAADVKRDRVWGGDYWGQGTQVTVSS”, the “polyreactivity (PSR sort gate)” value is on record as “low polyreactivity”.

“QVQLVESGGGLVQAGGRLRLSCAASGSISVTKAMGWYRQAPGTERELVAAISGSGGSTYADSVKGRFTISRDNAKNTVYLQMNSLKPVDTAVYYCDRDRYYTREWYWYRHDHWGQGTQVTVSS”: the “polyreactivity (PSR sort gate)” value was “low polyreactivity”.

For “QVQLVESGGGLVQAGGRLRLSCAASGSISWVYAMGWYRQAPGTERELVADITDSGDSTYYADSVKGRFTISRDNAKNTVYLQMHSLKPEDTAVYYSAAPGSRHYYIYWPYNYWGQGTQVTVSS”, the “polyreactivity (PSR sort gate)” value is recorded as “low polyreactivity”.

On to “QVQLVESGGGLVQAGGRLRLSCAASGSTFAGNAMGWYRQAPGKERELVAAIDSSTGSTYYADSVKGRFTISRDNAKNTVYLQMNSLKAEDTAVYYCNKTSFLVKLDYWGQGTQVTVSS”, for which the “polyreactivity (PSR sort gate)” value is recorded as “low polyreactivity”.

Take “QVQLVESGGGLVQAGGRLRLSCAASGSTFAINAMGWYRQAPGKERELVAAITWSGGSTYYADSVKGRFTISRDNAKNTVYLQMNSLKPEDTAVYYCNAKSYRHLLYIPYKYNYWGQGTQVTVSS”: the “polyreactivity (PSR sort gate)” value is reported as “high polyreactivity”.

As to “QVQLVESGGGLVQAGGRLRLSCAASGSTFGYYAMGWNRQAPGKERELVAAISSRDGSTFYADSVKGRFTISRDNAKNTVFLQMNSLKPDDTAVYYCAKVFFHTPIVPEYDYCGQGTQVTVSS”, the “polyreactivity (PSR sort gate)” value is on record as “low polyreactivity”.

With “QVQLVESGGGLVQAGGRLRLSCAASGSTFKAYAMGWYRQAPGKERELVAAISSGGSRTYYADSVKGRFTISRDNAKITVYLQMHRLKPEDIEVYYCAARKADTVFKFEYWGQGTLVTVSS”, the “polyreactivity (PSR sort gate)” value is listed as “high polyreactivity”.

With “QVQLVESGGGLVQAGGRLRLSCAASGSTFKRYVMRLYRQAPGKERELVAAITWSGTRTYYADSVKGRFTISRDNAKNTVYLQMNSLKPEDTAVYYSAAVADRYPYSGYNYYSWGQGTQVTVSS”, the “polyreactivity (PSR sort gate)” value was “high polyreactivity”.

As for “QVQLVESGGGLVQAGGRLRLSCAASGSTFRYYALGWYRQAPGKERELVAVISSTGSRTNYADSVKGRFTISRDNAKNTVYLQMNSLKPEHTAVYYCAADTTRRAPGYYYWGQGTQETVSS”, the “polyreactivity (PSR sort gate)” value is “high polyreactivity”.

On to “QVQLVESGGGLVQAGGRLRLSCAASGSTFTHYAMGWYRQAPGKERELVAAISSGGSTYYADSVKGRFTISRDNAKNTVYLQMNSLKPEDTAVYYCAADYDWHDWWYPHDYWGQGTQVTVSS”, for which the “polyreactivity (PSR sort gate)” value was “low polyreactivity”.

With “QVQLVESGGGLVQAGGRLRLSCAASGSTFWLNAMGWSRQATGKERELFADSSRSGGSTYYADSVKGRFTISRDNAKNTVYLQMNSLKPEDTAVYYCAADSWPDQFTVYPGGDYWGQGTQVTVSS”, the “polyreactivity (PSR sort gate)” value is recorded as “low polyreactivity”.

Regarding “QVQLVESGGGLVQAGGRLRLSCAASGSTFWYYAMGWYRQAPGKEREFVAGISTSGVSTYYADSVKGRFTISRDNAKNTVYLQMNSLKPEDTAVYYCAADYIFRRAGWYLMDYWGQGTQVTVSS”, the “polyreactivity (PSR sort gate)” value is listed as “high polyreactivity”.

Consider “QVQLVESGGGLVQAGGRLRLSCAASGSTFYWNTMGWYIQAPGKERELVAAISRRGGSTYYADSEKGRFTISRDNAKNTVYLQMNSLKPEETAVYYCNKLLSQRRYHSEMDYWGQGTQVTVSS”, for which the “polyreactivity (PSR sort gate)” value is reported as “high polyreactivity”.

Consider “QVQLVESGGGLVQAGGRLRLSCAASGSTIPRYAMGWSRQAPGKERELVAAITNGGSTNYADSVKGRFTISRDNAKNTVYLQMNSLKPEDTAVYYCAKRFGYRFYYGGQGTQVTVSS”, for which the “polyreactivity (PSR sort gate)” value is reported as “high polyreactivity”.

As for “QVQLVESGGGLVQAGGRLRLSCAASGTIFGPYAMGWYRQAPGKEREFVAAISRSGTRTNYADSVKGRFTISRDNAKNTVYLQMNSLKPEDTAVYYCAAGYYGPDPRNRYRYNYWGQGTQVTVSS”, the “polyreactivity (PSR sort gate)” value is recorded as “high polyreactivity”.

For “QVQLVESGGGLVQAGGRLRLSCAASGYIFSRYAMGWYRQAPGKERELVAAISKSGSSTYYADSVKGRFTISRDNAKNTVYLQMNSLKPEDTAVYYCATSYSVGYDYWGQGTQVTVSS”, the “polyreactivity (PSR sort gate)” value is given as “high polyreactivity”.

On to “QVQLVESGGGLVQAGGRLRLSCAASGYTFVVNAMGWYRQAPGKERELVAAITGGDSTNYADSVKGRFTISRDNATNTVYLQMNSLKPEDTAVYYCAKRDVLPFQTVTGSRNDYWGQGTQVTVSS”, for which the “polyreactivity (PSR sort gate)” value is “low polyreactivity”.

For the sequence “QVQLVESGGGLVQAGGRLRLSCAASVRIFRVYAMGWYRQEPGKERELVAAISWSGGRTYYADSVKGRFTISRDNAKNTVYLQMNSLKPEHTAVYYCAAVSGYALGYDYWGQGTQVTVSS”, the “polyreactivity (PSR sort gate)” value is recorded as “high polyreactivity”.

As to “QVQLVESGGGLVQAGGRLRLSCAASVSIFNPYTMGWYRQAPGKERELVAAISYRGGSTYYADSVKGRFTISRDNAKNTVYLQMNSLKREDTAVYYCAAQVRYLGYRYDYWGQGTQVTVSS”, the “polyreactivity (PSR sort gate)” value is recorded as “high polyreactivity”.

In the case of “QVQLVESGGGLVQAGGRLRLSCADSGRTFYYYAMGWYRQAPGKERELVAAIRWRATSTFYADSVKGRFTISRDNAKNTVYLQMNSLKPEDTAVYYCATTGGYRLQAQKYYYWGQGTQVTLSS”, the “polyreactivity (PSR sort gate)” value was “high polyreactivity”.

For “QVQLVESGGGLVQAGGRLRLSCAPSGRIFVYNAMGWYRQAPGKERELVAAINSGDSTYYADSVKGRFTISRDNAKKTVYLQMNSLKPEDTAVYYCARDGWAFSIYYDLDYWGQGTQVTVSA”, the “polyreactivity (PSR sort gate)” value is “low polyreactivity”.

As to “QVQLVESGGGLVQAGGRLRLSCASSGIIFRYNAMGWYRQAPGKERELVAAISSSGTTNYADSVKGRFTISRDNAKNTVYLQMNSLKPEDTAVYYCAARRSYARRFKNSMEYWGQGTQVTVSS”, the “polyreactivity (PSR sort gate)” value was “high polyreactivity”.

As to “QVQLVESGGGLVQAGGRLRLSCATSGYIFYDYDMGWYRQAPGKERELVAAIRRSTGTTYYADSVKGRFTISRDNEKNTVYLLMISLKPESTAVYYCAALFRPRVHRYDYWGQGTQVTVSS”, the “polyreactivity (PSR sort gate)” value was “low polyreactivity”.

On to “QVQLVESGGGLVQAGGRLRLSCSASGLTVYRKAMGWSRQAPGKEREMVAAITSSGGRTYYADSVKGRFTISRDNAKNTVYLLMNSLKAEDTALYYCAADFCLGYYYWGQGTQVTVSS”, for which the “polyreactivity (PSR sort gate)” value is on record as “high polyreactivity”.

On to “QVQLVESGGGLVQAGGRLRLTCAASGFTFGRYAMGWYRQAPGKERDLVADITSGSGGTYYADSVKGRFTISRATAKNSVYLQMNSLKPEDTAVYYCATGSRSRGALRYAHFDFWGQGTQVSVSS”, for which the “polyreactivity (PSR sort gate)” value was “high polyreactivity”.

Regarding “QVQLVESGGGLVQAGGRLRLTCAASGSIFLEYTMGWSRQAPGKEREVVASISWGGGSTYYADSVKGRFTISRDNAKNTVYLQMNSLKPEDTAVYYCAAVTKLSGIRYNYWGQGTQVTVSS”, the “polyreactivity (PSR sort gate)” value is on record as “low polyreactivity”.

Consider “QVQLVESGGGLVQAGGRLRLTCAASGSIFPTYDLGWYRQAPGKERELVAAIRGDGSTNYADSVKGRFTISRDNAKNTVYVQMNSLKPEDTAVSYCAAVSSEYVFRYGGYWGQGTQVTVSS”, for which the “polyreactivity (PSR sort gate)” value is “low polyreactivity”.

As to “QVQLVESGGGLVQAGGRLSLSCAASGSTFAYYAMGWYRQAPGKERELVAGITWTGGSTYYADSVKGRFTNSRDNAKNTVYLQMNSLKPEDTAVYYCAVTYPYGYEYDHWGQGTQVTVSS”, the “polyreactivity (PSR sort gate)” value is “low polyreactivity”.
